Test results: publication PMC7865352, “The Relevance of the SH2 Domain for c-Src Functionality in Triple-Negative Breast Cancer Cells”

Biological target: GST-SH2 (c-Src SH2 domain) (human, UniProt P12931 151-248)
Experiment: ELONA; ELONA with plated GST proteins and digoxigenin-labelled aptamers (buffer not given in material); selection in PBS + 1 mM Mg, 37 C
Conditions: protein: recombinant, label: digoxigenin

B1: ApSH2.14F (ssDNA)
DNA: GCGGATGAAGACTGGTGTAGACAATGGATACTCCCGCCACCTCCTCCCCCGCCCCCCCGCCCTAAATACGAGCAAC
B1: binds.

B2: ApSH2.17F (ssDNA)
DNA: GCGGATGAAGACTGGTGTGCGGTGGTGGGTTGGGTGGGTGGGTTTGCGGGTTGCGTTGGCCCTAAATACGAGCAAC
B2: binds (G-quadruplex examined in silico).
